Data from patent US20230184767.
pKd: −log10 of the molar value.

Test system: infectious human adenovirus 2 (HAdV-2, whole virus) (Human adenovirus 2)
Test: ELONA
Settings: SELEX buffer 20 mM Tris, 100 mM NaCl, 2.5 mM MgCl2, pH 7.2, room temperature

“GGCTGCAGCTGAAGCACTGGTTTTGAGTCAAACCCAGACGATGGA [Apt-HAdV]” gave a pKd of 9.05.
